Experiment: yeast display, Sf9 membrane polyspecificity reagent, FACS + sequencing; frameworks hold sequencing errors
Summary of the method: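 Nanobodies from a synthetic yeast display library (Saccharomyces cerevisiae BJ5465), induced 36–48 hours with galactose, were stained 1 hour at 4 °C with 10% biotinylated, detergent-solubilized Sf9 membrane reagent, enriched on streptavidin microbeads, then FACS-sorted. Anti-HA (expression) and streptavidin (reagent binding) fluorescence set low and high (top ~1%) gates. Polyreactivity labels come from the gate of origin. Genes were colony-PCR amplified, MiSeq 2 × 250 sequenced and filtered by CDR length.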

Row | Sequence | polyreactivity (PSR sort gate)
1 | QVQLVESGGGLVQAGGSLRLSCAASGFIIDYYAKGWYRQAPGKERELVASITDSTTYYADSVKGRFTISRDNAKNTVYLQMNSLKPEDTAVYYCNARGGYAYVLYDYWGQGTQVTVSS | low polyreactivity
2 | QVQLVESGGGLVQAGGSLRLSSAASGRIFDGNAMGGYRQAPGTERELVATINRGARTNYADSVKGRFTISRDNAKNTVYLQMNSLKPEDTAVYYCATSYPGYAYNQAWYPYGYWGQGTQVTVSS | low polyreactivity
3 | QVQLVESGGGIVQAGGSLRLTCAASGRIFLANAMGWYRQAPGKERELVAAISLSGGRTYYADSLKGRFTISRDNAKNSVYFQRNSLKPEDTAVYYCAAEFYPIRYYGGYDYWGQGTQVTVSS | low polyreactivity
4 | QVQLVESGGGLVQAGGSLRLSCAASGSTFGPYAMGWYRQAPGKERELVAAIRSDGGTYYADSVTGRFTISRDNAKNTVYLQMNSLKPEDTAVYYCNAVPVGWRYRQYDYWGQGPQVTVSS | high polyreactivity
5 | QVQLVESGGGLVQAGGSLRLSCAASGSIFRFNTMGWYRQAPGKERELVAAITSGDGTYYADSVKGRFTISRDNAKNTVYLQMNSLKPEDTAVYYCAATRTYQLYRWAPRYYYWGQGTQVTVSS | high polyreactivity
6 | QVQLVESGGGLVQAGGSLRLSCAASGFTFRRNAMGWYRKAPGKERELVAAISSSGGSTNYADSVKGRFTISRDNAKNTVYLQMNSLKPEDTAVYYCNRGSRRLGSIVWYDYWGQGTQVTVSS | high polyreactivity
7 | QVQLVESGGGLDQAGGSLRLSCAASGRIFIKNTMGWYRQAPGKERELVAAITSSGSSTYYADSVKGRFTISRDNAKNTVYLKMNSLKPEDTAVYYCNALTWDHSRTGVDYWGQGTQVTVSS | low polyreactivity
8 | QVQLVESGGGLVQAGGSLRLSCAASVSIFGSNAMRWYRQAPGKERELVAVITNGGRTYYADSVKGRFTISRDNAKNTVFLQMNSLKPEDTAVYYCAASRVYGWYGSYSTYGSWGQGTQVTVSS | high polyreactivity
9 | QVQLVESGGGLVQAGGSLRLSCAASGSTLYAYVMGWYRQAPGKERELVATISWSGGRTYYADSVKGRFTISRDNAKNTVYLQMNSLKPEDTAVYYCNARRRYSYVSRKFDYWGQGTQVTVSS | high polyreactivity
10 | QDQLVESGGGLVQAGGSLRLSCAASGSTFYYNAMGLYRQAPGKEREVVARISRSGGSTYADSVKGRFTISRDNAKNTVYLQMNSLKPEDTAVYYCNADAYGTPEFTSYAVRYDYWGQGTQVTVSS | low polyreactivity
11 | QVQLVESGGGLVQAGGSLRLSCAASGFIFANYAMGWYRQAPGKERELVAVISQRGGRTYYADSVKGRFTISRDNAKNTVYLQMNSLKPEDTAVYYCNAVTGEWGQGTQVTVSS | low polyreactivity
12 | QDQLVQSGGGLVQAGGTLRLSCAASGRIIYVNAMGWYRQAPGKERDFVATITRGGSTYYADSVKGRFTISRDNAKNTVYFQMNSLQPEDTAVYYCATVRGGWKGRGHRNDYWGQGTQVTVSS | high polyreactivity
13 | QVQLVESGGGLVKAGGSLRLSCAASGITCTKNAMGWYRQAPGKERELVAAISTSGGSTYYADSVKGRFTISRDTAKNTVYLQMTSLKPEDTAVYYCAARAVIRGGRYFYWGQGTLVTVSS | high polyreactivity
14 | QVQLVESGGGLVQAGGSLRLSCAASGRIFRRYAMGWYRQAPWKERELVAAISTSGVRTYYADSVKGRFTISRDNAKNTVYLQMNSLNPEDTAVYYCATVAGPPYDYWGQGTLVTVSS | high polyreactivity
15 | QVQLVESGGGLVQAGGSLRLSCAASGFIFYSNAMGWYRQAPGKERELVAAIRSTGSTSYADSVKGRFTISRDNAKNTVYLQMNSLKPEDTAVYYCAKVRYWRGYDYWGQGTQVTVSS | high polyreactivity
16 | QVQLVESGGGLVQAGGSLRLSCAASGIIFPGNVMGWYRQAPGKERELVAGISSSGSRTYYADSVKGRFTISRDNAKNTVYLQMNSLKPEDTAVYYCAAEHQRSRGRRYYIGYDYWGQGTQVTVSS | low polyreactivity
17 | QVQLVESGGGLVQAGGSLRLSCAASGRTFWLYAMGWYRQAPGKEREFVASISSSGDSTYYADSVKGRFTISRDNAKNTVYLQMNSLKPEDTAVYYCAARPSRRYLRNGLDYWGQGTQVTVSS | high polyreactivity
18 | QVQLVESGGGLVQAGGSLRLSCAASGITFVVYTMGWYRQAPGKERELVASISISGDSTNYAESVKGRFTISRDNAKNTVYLQMNILKPEDTAVYYCNAAFYHVQFPWIAYEYWGQGTQVTVSP | low polyreactivity
19 | QVQLEESGGGLVQAGGSLRLSCAASGSTFPFYAMGWYRQAPGKERELVAAISRGGSTNYADSVKGRFTISRDNAKNTVYLQMNSLKPEDTAVYYCNADVFWWYPYDYWGQGTQVTVSS | high polyreactivity
20 | QVRLVESGGGLVQAGGSLRLSCAASGSIFDVYAMGCYRQAPGKERELVATISYGDSSTYYADSVKGRFTISRDTAKNTVYLQMNSLKPEDTAVYYCAADYLTAPRWRQWGEMDYWGQGTQVTVSS | low polyreactivity
21 | QVQLVESGGGLVQAGGSLRLSCAASVNIFSFYAMGWNRQAPGKERELVAAIIWSGGDTYYADSVKGRFTISLDNAKNTVYLQMNSLKPEDTAVYYCAAEYYYQYYPGGYDYWGQGSQVTVSS | high polyreactivity
22 | QVQLVESGGGLVQAGGSLRISCAASGSTFGYNGMGWYRQAPGKERELVAAISGGARTYADSVKGRFTISRDNAKNTVYLLMNSLKPEDTAVYYCAADSPVSVTADDVFWGQGTQVTVSS | low polyreactivity

Row | Sequence | polyreactivity (PSR sort gate)
23 | QVQLVESGGGLVQAGGSLRLSCAASGRTFRAYAMGGYRQAPGKERELVAAITSGGSTYYADSVKGRFTISRDNAKNTVYLQMNSLKPEDTAVYYCNRRGWSRTHQYDYWGQGTQVTESS | high polyreactivity
24 | QVQHVESGGGLVQAGGSLRLSCAASGRTLLGNAMGRYRQAPGKEREFVAAISYRGGSTYYADSVKGRFTISRDNAKNTVYLQMNSLKPEDTAVYYCAASSFKYSRFDYWGQGTQVTVSS | low polyreactivity
25 | QVQLVESGGGFVQAGGSLRLSCAASGRIFRYYAMGWSRQAPGKERELVAAINSGGSTKYADSVKGRFTISRDNAKNTVYFQMNSLNPEDTAVYYCNKDHAFSRYWYGGFDYWGQGTQVTVSS | high polyreactivity
26 | QVQLVESGGGLVQAGGSLRLSCAASGFIFYAYTMGWYRQAPGKERELVAAISRSGGRTYYADSVKGRFTISRDNAKNTVYLQMNSLKPEDTAVYYCAAEYRGVPRVVVDYDYWGQGTQVTVSS | high polyreactivity
27 | QVQLVESGGGLVKAGGSLRLSCAASGFTFWRNTMGWYRQAPGKERELVAAIDRSGSSTYYADSVKGRFTISRDNATNNVYFQMNSLKPEDTAVYYCAADHTYFTAYGDYWGQGTQVTVSS | low polyreactivity
28 | QVQLVESGGGLVQAGGSLRLSCAASGSTFAQYAMGWYRQAPGKEREFVAAITRGGGRTYYADSVKGRFTISRDNAKNSVYLQMNSLKPEDTAVYYCNAVYRYYPFDYWGQGTQVTVSS | high polyreactivity
29 | QVQLVESGGGLVQAGRSLRLICAASGRTFTLNAMRWYRQAPGKERELVDAITWGAGSTYYADSVKGRFTISRDNAKNTVYLQMNSLKPEDTAVYYCAARFHGDYYRYRSPSMYYWGQGSQVTVSS | high polyreactivity
30 | QVQLVESGGGIVQAGGILRLSCAASGRNLHGYTMGWYRQAPGKERELVATISSIGGSTYYADSVKGRFTISRDNAKNTVYLQMNSLKPEDTAVYYCAATRGRRYQSYYWGQGTQVTVSS | low polyreactivity
31 | QVQLVESGGGLVQAGGSLRLSCAASGFIFVYYAMGWYRQAPGKERELVATISSSSASTYYADSVKGRFTISRDNAKNTVYLQMNSLKPEDTAVYYCAVLVSRYRYRVLDDSWGQGTQVTVSS | high polyreactivity
32 | QVQLVESGGGLVQAGGRLRISCADSGSTFQFYALGWYRQAPGKERQLVASIRVRSGTTYYADSVKGRFTISRENAKNTVYLQMTSLKPEDTAVYYCAAGRPFYGRKYDYWGQGTQVTVSS | high polyreactivity
33 | QVKLVESGGGLVHAGGSLRLSCSASGRIIGFNAMGVYRQAPGKERELVASIRTTGGSTRYADSVKGRFTISRDNAKNTVSLQMNSLKPEDTAVYYCAARWGKTRWQYNYWGHGTQVTVSS | high polyreactivity
34 | QVQLVESGGGLVQAGGSLRLSCAASGSIFNPNAMGWYRQAPGKERELVAAISYSDATTYYADSVKGRFTISRDNAKNTVYLQMNSLKPEDTAVYYCAAEPAAGDYDYWGQGTQVTVSS | high polyreactivity
35 | QVQLVESGGGLVQAGGSLRLSCAASVSTFYRNAMGWYRQAPGKERELVADISASGGSTYYADSVKGRFTISRDNAKNTVYLQMNSLKPEDTAVYYCNALYFYFYNYLTIVYWGQGTQVSVSS | low polyreactivity
36 | QVQLVESGGGLVQAGGSLRLSCAASGSIFVRNAMGWYRQAPGKERELVAAITYRGGSTYYADSVKGRFTISRDNAKNTVYLQMNSLKPEDTAVYYCAARYWQSYRSQVTHSSTLDYWGQGTQVTVSS | low polyreactivity
37 | QVQLVESGGGLVQAGGSLRLSCAASGITYWKYAMGWYRQAPGKERELVAAISKSGGSTYYADSVKGRFTISRDNAKNTVYLQMNSLKPEDTAVYYCAAVPGPASKYGYWGQGTQVTVSS | high polyreactivity
38 | QVQLVESGGGLVQAGGSLRLSCADSGSIFSKYAMGWYRQAPGKERELVAAISRSGGRTYYADSVKGRFTISRDNAKNTVYLQMNSLKPEDTAVYYCAADRSYYTWFGGDYWGQGTQVTVSS | high polyreactivity
39 | QVQLVESGGRLVQAGFSLRLSCAASGSTFRWYALGWYRQAPGIESELVAAITSGGRTYYADSVKGRFTISRDNAKNPVYLQMSSLKPEATAGYYCAAQYADRGKRDYWGQGTQVTGSS | high polyreactivity
40 | QVQLVESGGGLVQAGGSLRLSCAASGSTFFPNGMGWYRLAPGKERELVAAITQDGGSTYYADSVKGRFTISRDNAKNTVSLQMNSLKPEDTAVYYCAASAGPSYEYGYWGQGTQVTVSS | low polyreactivity
41 | QVQLVESGGGLVQAGGSLRLSCAASGNIFRYYAMGWYRQAPGKERELVARISTGSSTYYADSVKGRFTISRDNAKNTVYLQMNSLKPEDTAVYYCAAANYRYRVPWFYYWGQGTQVTVSS | high polyreactivity
42 | QVQLVESGGGLVQAGGSLRLSCAASGSTFHRYAMGWYRQAPGKERELVATITSRGGITYYADSVKGRFTISRDNSKNTVYLQMNSLNPEDTALYYCNTEDGTTPQYGYDQGMYYWGQGTQVTVSS | low polyreactivity
43 | QVQLVESGGGLVQAGGRLRLSCAASGLIFVWYAMGWYRQAPGKERELVAAISTSGGSTYYADSVKGRFTISRDNAKNTVYLQMNSLKPEDTAVYYCAAARRWWPQGYYWGQGTQVTVSS | high polyreactivity

Source: the nanobody polyreactivity screen of Harvey et al. (2022)
